Measurements from article PMC8890701 (Science Advances, 2022).

Assays:
[1] = molecular target: S. pneumoniae LicB (S. pneumoniae); assay: cryo-EM structure
S. pneumoniae LicB = molecular target: T1, S. pneumoniae LicB (Streptococcus pneumoniae TIGR4 (ATCC …)); assay: cryo-EM structure
T1 chain: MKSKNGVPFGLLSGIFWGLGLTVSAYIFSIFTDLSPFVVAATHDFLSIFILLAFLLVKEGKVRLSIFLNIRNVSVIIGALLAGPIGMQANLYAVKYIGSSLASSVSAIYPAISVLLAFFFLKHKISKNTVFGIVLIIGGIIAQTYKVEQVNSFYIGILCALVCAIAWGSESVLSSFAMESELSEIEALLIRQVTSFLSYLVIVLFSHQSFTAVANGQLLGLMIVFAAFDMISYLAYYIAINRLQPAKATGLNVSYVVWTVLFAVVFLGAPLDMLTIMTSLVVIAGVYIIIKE

Molecule: S. pneumoniae LicB (natural protein)
- stoichiometry N [1]: 2

B1: sybody C (VHH)
VHH: QVQLVESGGGSVQAGGSLRLSCAASGTIHAIGYLGWFRQAPGKEREGVAALTTYDGWTYYADSVKGRFTVSLDNAKNTVYLQMNSLKPEDTALYYCAAADDGWMFPLYHNHYEYWGQGTQVTVSA
- binding result (S. pneumoniae LicB): binds
